Target: CXCR4 receptor on the surface of RIL-175 murine HCC cells (murine (endogenous on murine RIL-175 HCC cells)) (UniProt P70658)
Experiment: cell-based or functional assay

UniProt P70658, sequence (P70658 whole entry): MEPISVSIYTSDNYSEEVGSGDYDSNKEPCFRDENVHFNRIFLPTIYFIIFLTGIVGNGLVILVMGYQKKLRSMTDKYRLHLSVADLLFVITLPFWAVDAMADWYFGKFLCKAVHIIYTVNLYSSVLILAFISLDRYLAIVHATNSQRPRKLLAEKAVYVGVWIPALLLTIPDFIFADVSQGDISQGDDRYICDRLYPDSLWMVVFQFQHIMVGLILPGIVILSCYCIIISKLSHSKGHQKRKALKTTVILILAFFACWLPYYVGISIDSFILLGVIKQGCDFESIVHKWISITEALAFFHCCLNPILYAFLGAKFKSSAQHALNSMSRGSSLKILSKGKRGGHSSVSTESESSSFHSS

cellular uptake in RIL-175 cells (flow cytometry of EGFP), 5% CTCE-EGFP NPs versus 5% SCP-EGFP NPs (scrambled peptide, SEQ ID NO: 2): > 15 fold
mean fluorescence intensity of EGFP in transfected RIL-175 cells (flow cytometry), CTCE-EGFP NPs versus SCP-EGFP NPs: 4.5 fold
Substance: CTCE-9908 peptide conjugated to DSPE-PEG and displayed on polymer-lipid hybrid mRNA nanoparticles (DSPE-PEG-CTCE; CTCE-mRNA NPs)
